# Positions count from the first letter of the chain named. Names and notes keep the numbering of the source.
# B1: Bacillus licheniformis α-amylase, WT (wild type, B. licheniformis T5; SEQ ID NO: 3) (Bacillus licheniformis) (protein)
# chain: ANLNGTLMQYFEWYMPNDGQHWKRLQNDSAYLAEHGITAVWIPPAYKGTSQADVGYGAYDLYDLGEFHQKGTVRTKYGTKGELQSAIKSLHSRDINVYGDVVINHKGGADATEDVTAVEVDPADRNRVISGEHRIKAWTHFHFPGRGSTYSDFKWHWYHFDGTDWDESRKLNRIYKFQGKAWDWEVSNENGNYDYLMYADIDYDHPDVAAEIKRWGTWYANELQLDGFRLDAVKHIKFSFLRDWVNHVREKTGKEMFTVAEYWQNDLGALENYLNKTNFNHSVFDVPLHYQFHAASTQGGGYDMRKLLNSTVVSKHPLKAVTFVDNHDTQPGQSLESTVQTWFKPLAYAFILTRESGYPQVFYGDMYGTKGDSQREIPALKHKIEPILKARKQYAYGAQHDYFDHHDIVGWTREGDSSVANSGLAALITDGPGGAKRMYVGRQNAGETWHDITGNRSEPVVINSEGWGEFHVNGGSVSIYVQR
# notes: made in house; host or cells: E. coli WK6
# B2: Bacillus licheniformis α-amylase mutant 2D5 (H133Y, T149I) (Bacillus licheniformis; H162Y/T178I) (protein)
# chain: B1 chain with H133Y, T149I
# notes: as for B1
# Assays:
# [1] = substrate: O=[N+]([O-])c1ccc(OC2O[C@H](CO)[C@@H](O[C@H]3O[C@H](CO)[C@@H](O[C@H]4O[C@H](CO)[C@@H](O[C@H]5O[C@H](CO)[C@@H](O[C@H]6O[C@H](CO)[C@@H](O)[C@H](O)[C@H]6O)[C@H](O)[C@H]5O)[C@H](O)[C@H]4O)[C@H](O)[C@H]3O)[C@H](O)[C@H]2O)cc1; assay: Enzymatic activity with 4NP-DP5 as substrate, Michaelis-Menten kinetics (WT); format: biochemical, Bacillus licheniformis; details: other: substrate 4NP-DP5 0-1 mM, 35° C., 50 mM MOPS, 50 mM NaCl, 2 mM CaCl2, pH 7.15, WT α-amylase
# Protocol: (§1) The enzymatic activity of B. licheniformis α-amylase WT and mutants was measured using 4-nitrophenyl-maltopentaoside (4NP-DP5) as a substrate, 4 nitrophenol and maltopentaose are formed, this reaction can be followed by measuring the change in OD 405 The assay was performed at 35° C. in 50 mM MOPS, 50 mM NaCl, 2 mM CaCl2 (PH 7.15) and 0-1 mM 4NP-DP5.
# (§2) Initial rates were measured and E-nitrophenol was taken as 10,000 l/M/cm.
# [2] = substrate: O=[N+]([O-])c1ccc(OC2O[C@H](CO)[C@@H](O[C@H]3O[C@H](CO)[C@@H](O[C@H]4O[C@H](CO)[C@@H](O[C@H]5O[C@H](CO)[C@@H](O[C@H]6O[C@H](CO)[C@@H](O)[C@H](O)[C@H]6O)[C@H](O)[C@H]5O)[C@H](O)[C@H]4O)[C@H](O)[C@H]3O)[C@H](O)[C@H]2O)cc1; assay: Enzymatic activity with 4NP-DP5 as substrate, Michaelis-Menten kinetics (mutant 2D5); format: biochemical, Bacillus licheniformis; details: other: substrate 4NP-DP5 0-1 mM, 35° C., 50 mM MOPS, 50 mM NaCl, 2 mM CaCl2, pH 7.15, 2D5 α-amylase
# Protocol: 2D5 contained the D7 mutation and in addition threonine 149 was replaced by isoleucine (2D5=H133Y, T149I).
# as §1, §2
Protein,Km [1],Vmax [1],Km [2],Vmax [2]
B1,112 µM,66.7 ± 0.9 µmol/min/mg,,
B2,,,119 µM,66.3 ± 0.7 µmol/min/mg
